In patent US20210380702A1 (Regeneron, published 2021):

Key:
Human PD-L1 Dimer [1] = biological target: T1, Human PD-L1 Dimer (human, UniProt Q9NZQ7 19-239); assay: SPR (Biacore), mAb captured, 25C
T1 construct: also called hPD-L1 dimer; hPD-L1-hFc
Description: (§1) Binding association and dissociation rate constants (kₐ and kd, respectively), equilibrium dissociation constants and dissociation half-lives (KD and t_{1/2}, respectively) of antigen binding to purified anti-PD-L1 monoclonal antibodies were determined using a real-time surface plasmon resonance biosensor assay on a Biacore 4000 instrument. The Biacore sensor surface was either derivatized with polyclonal rabbit anti-mouse antibody (GE, #BR-1008-38) or with monoclonal mouse anti-human Fc antibody (GE, #BR-1008-39) to capture approximately 200-300 RUs of anti-PD-L1 monoclonal antibodies, expressed with either a mouse Fc or with human Fc, respectively. […] Different concentrations of PD-L1 reagents were injected over the anti-PD-L1 monoclonal antibody captured surface at a flow rate of 30 μL/min. The binding of the PD-L1 reagents to the captured monoclonal antibodies was monitored for 3 to 4 minutes while the dissociation of antibody bound PD-L1 reagents was monitored for 10 minutes in HBST running buffer (0.01 M HEPES pH 7.4, 0.15 M NaCl, 3 mM EDTA, 0.05% v/v Surfactant tween-20). Experiments were performed at either 25° C. or 37° C. Kinetic association (kₐ) and dissociation (kd) rate constants were determined by processing and fitting the data to a 1:1 binding model using Scrubber 2.0c curve fitting software. Binding dissociation equilibrium constants (KD) and dissociative half-lives (t_{1/2}) were then calculated from the kinetic rate constants as: KD (M)=kd/kₐ and t_{1/2} (min)=[In2/(60*kd)].

[2] = biological target: T2, recombinant cynomolgus monkey PD-L1 with a C-terminal myc-myc-hexahistidine tag (cynomolgus monkey (Macaca fascicularis)); assay: SPR (Biacore), mAb captured, 25C
T2 construct: also called MfPD-L1-MMH; MfPD-L1-MMH Monomer
T2 sequence (chain, as listed by the source limits assumed): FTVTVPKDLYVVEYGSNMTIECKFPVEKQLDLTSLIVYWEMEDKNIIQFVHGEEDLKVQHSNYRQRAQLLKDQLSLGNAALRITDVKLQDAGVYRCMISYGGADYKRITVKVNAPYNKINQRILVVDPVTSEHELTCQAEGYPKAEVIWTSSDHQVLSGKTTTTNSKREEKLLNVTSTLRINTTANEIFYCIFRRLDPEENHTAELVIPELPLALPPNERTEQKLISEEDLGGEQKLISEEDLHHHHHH
Description: as §1

Human PD-L1 Dimer [3] = biological target: T1, Human PD-L1 Dimer; assay: SPR (Biacore), mAb captured, 37C
Description: as §1

[4] = biological target: T2, recombinant cynomolgus monkey PD-L1 …; assay: SPR (Biacore), mAb captured, 37C
Description: as §1

[5] = biological target: T3, recombinant human PD-L1 (amino acids 19-239 of NP_054862.1) with a C-terminal myc-myc-hexahistidine tag (human); assay: SPR (Biacore), mAb captured, 37C
T3 construct: also called hPD-L1-MMH; hPD-L1-MMH Monomer
T3 sequence (chain, as listed by the source limits assumed): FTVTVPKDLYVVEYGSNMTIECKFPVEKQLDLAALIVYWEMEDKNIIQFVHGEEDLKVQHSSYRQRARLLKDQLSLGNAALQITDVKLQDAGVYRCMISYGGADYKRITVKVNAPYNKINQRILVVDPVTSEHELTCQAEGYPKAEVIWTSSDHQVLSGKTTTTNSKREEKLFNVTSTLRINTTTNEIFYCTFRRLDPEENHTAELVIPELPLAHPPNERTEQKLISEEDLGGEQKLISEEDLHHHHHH
Description: as §1

[6] = biological target: T4, recombinant cynomolgus monkey PD-L1 with a C-terminal mouse IgG2a Fc tag (cynomolgus monkey (Macaca fascicularis)); assay: SPR (Biacore), mAb captured, 25C
T4 construct: also called MfPD-L1-mFc; monkey PD-L1-mFc
T4 sequence (chain, as listed by the source limits assumed): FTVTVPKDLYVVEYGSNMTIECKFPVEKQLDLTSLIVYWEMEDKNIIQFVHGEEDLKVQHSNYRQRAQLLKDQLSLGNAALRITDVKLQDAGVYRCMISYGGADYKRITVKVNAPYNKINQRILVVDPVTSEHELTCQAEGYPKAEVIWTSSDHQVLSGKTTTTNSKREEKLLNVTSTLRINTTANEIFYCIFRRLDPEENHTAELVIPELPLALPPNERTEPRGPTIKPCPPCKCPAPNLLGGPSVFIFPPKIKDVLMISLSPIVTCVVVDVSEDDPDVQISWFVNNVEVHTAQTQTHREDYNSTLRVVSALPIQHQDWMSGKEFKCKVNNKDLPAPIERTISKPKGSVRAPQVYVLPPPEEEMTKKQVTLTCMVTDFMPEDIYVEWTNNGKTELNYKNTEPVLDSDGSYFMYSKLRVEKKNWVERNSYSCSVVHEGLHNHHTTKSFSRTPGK
Description: as §1

T1 sequence (Q9NZQ7 19-239): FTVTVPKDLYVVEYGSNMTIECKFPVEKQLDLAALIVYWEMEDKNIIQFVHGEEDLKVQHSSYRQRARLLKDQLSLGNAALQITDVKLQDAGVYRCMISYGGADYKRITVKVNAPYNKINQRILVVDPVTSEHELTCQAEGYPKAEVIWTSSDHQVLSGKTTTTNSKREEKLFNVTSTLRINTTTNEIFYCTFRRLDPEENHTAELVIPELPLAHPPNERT

| Binder | Kd (Human PD-L1 Dimer [1]) [nM] | koff (Human PD-L1 Dimer [1]) [s⁻¹] | kon (Human PD-L1 Dimer [1]) [M⁻¹ s⁻¹] | t1/2 (Human PD-L1 Dimer [1]) [min] | Kd [2] [nM] | koff [2] [s⁻¹] | kon [2] [M⁻¹ s⁻¹] | t1/2 [2] [min] | Kd (Human PD-L1 Dimer [3]) [nM] | koff (Human PD-L1 Dimer [3]) [s⁻¹] | kon (Human PD-L1 Dimer [3]) [M⁻¹ s⁻¹] | t1/2 (Human PD-L1 Dimer [3]) [min] | Kd [4] [nM] | koff [4] [s⁻¹] | kon [4] [M⁻¹ s⁻¹] | t1/2 [4] [min] | Kd [6] [nM] | koff [6] [s⁻¹] | kon [6] [M⁻¹ s⁻¹] | t1/2 [6] [min] | other results |
| --- | --- | --- | --- | --- | --- | --- | --- | --- | --- | --- | --- | --- | --- | --- | --- | --- | --- | --- | --- | --- | --- |
| H2aM8323N (antibody, mouse IgG2, V domains shown, also called H2M8323N) VH: QVQLVQSGAEVKMPGSSVRVSCKASGGIFSSSTISWVRQAPGQGLEWMGEIIPVFGTVNYAQKFQDRVIFTADESTTTAYMELSSLKSGDTAVYFCARNWGLGSFYIWGQGTMVTVSS VL: EIVLTQSPGTLSLSPGERATLSCRASQSFNFNYLAWYQQKPGQAPRLLIYGASSRATGIPDRFSGSGSGTDFTLTINRLEPEDFGVFYCQQYESAPWTFGQGTKVEIK | 0.00704 | 2.05e-05 | 2.91e+06 | 565 | 15.9 | 0.00868 | 547000 | 1.3 | 0.028 | 0.000121 | 4.32e+06 | 96 | 29.5 | 0.0282 | 956000 | 0.4 |  |  |  |  | Kd [5]: 0.497 nM; koff [5]: 0.000684 s⁻¹; kon [5]: 1.38e+06 M⁻¹ s⁻¹; t1/2 [5]: 17 min |
| H1H9329P (antibody, human IgG1, V domains shown) VH: EVQLVESGGGLVQSGGSLRLSCAASGFTFSSYWMSWVRQAPGKGLEWVANIKQDGSEKYYVDSVKGRFTISRDNAKNSLYLQMNSLRADDTAVYYCARDDIVVVPAPMGYYYYYFGMDVWGQGTTVTVSS VL: DIQMTQSPSSLSASVGDRVTITCRASQGIRNDLGWYQQKPGKAPKRLIYAASSLQSGVPSRFSGSGSGTEFTLTISSLQPEDFATYYCLQHNSYPYTFGQGTKLEIK | 0.259 | 0.000768 | 2.97e+06 | 15 | 76.9 | 0.135 | 1.76e+06 | 0.09 | 0.689 | 0.00267 | 3.87e+06 | 4.3 | 137 | 0.364 | 2.66e+06 | 0.03 | 0.386 | 0.000672 | 1.74e+06 | 17 | Kd [5]: 117 nM; koff [5]: 0.329 s⁻¹; kon [5]: 2.82e+06 M⁻¹ s⁻¹; t1/2 [5]: 0.04 min |
| H1H9336P (antibody, human IgG1, V domains shown) VH: EVQLVESGGGLVQPGRSLRLSCAASGFTFDDFAMHWVRQAPGKGLEWVSGISWTGGNMDYANSVKGRFTISREDAKNSLYLQMNSLRAADTALYYCVKDIRGIVATGGAFDIWGRGTMVTVSS VL: DIQMTQSPSSLSASVGDRVTISCRASQTISTYLNWFQQKPGKAPKLLIYVVSSLQSGVPSRFSGSGSGTDFTLTISSLQPEDFATYYCQQSYSTPFTFGPGTKVDIK | 0.0786 | 0.000109 | 1.38e+06 | 106 | 0.876 | 0.000594 | 679000 | 19 | 0.0302 | 8.31e-05 | 2.75e+06 | 139 | 1.38 | 0.00125 | 909000 | 9.2 | 0.0622 | 6.16e-05 | 990000 | 188 | Kd [5]: 0.733 nM; koff [5]: 0.000788 s⁻¹; kon [5]: 1.07e+06 M⁻¹ s⁻¹; t1/2 [5]: 15 min |
| H1H8314N (antibody, human IgG1, V domains shown) VH: EVQLVESGGGVVRPGGSLRLSCAASGFTFDDYGMTWVRQAPGRGLEWVSGIHWHGKRTGYADSVKGRFTISRDNAKKSLYLQMNSLKGEDTALYHCVRGGMSTGDWFDPWGQGTLVIVSS VL: DIQMTQSPSSLSASLGDRVTITCRASQSINSYLNWYQQKPGKAPKLLIYVASSLQSGVPSRFSGSGSGTEFTLTISNLQPEDFATYYCQQSYSTPPITFGQGTRLEIK |  |  |  |  |  |  |  |  |  |  |  |  |  |  |  |  | 0.0263 | 6.77e-05 | 2.58e+06 | 171 |  |
| H1H8323N (antibody, human IgG1, V domains shown) VH: QVQLVQSGAEVKMPGSSVRVSCKASGGIFSSSTISWVRQAPGQGLEWMGEIIPVFGTVNYAQKFQDRVIFTADESTTTAYMELSSLKSGDTAVYFCARNWGLGSFYIWGQGTMVTVSS VL: EIVLTQSPGTLSLSPGERATLSCRASQSFNFNYLAWYQQKPGQAPRLLIYGASSRATGIPDRFSGSGSGTDFTLTINRLEPEDFGVFYCQQYESAPWTFGQGTKVEIK |  |  |  |  |  |  |  |  |  |  |  |  |  |  |  |  | 0.0231 | 6.16e-05 | 2.67e+06 | 188 |  |
